According to patent US6559124B1, “Use of prosaposin and peptides obtained therefrom for treatment of neural degeneration” (Myelos Corporation, priority 1993, dated 2003):
Several values for one entry are separate records, joined by “and”; a condition that tells them apart may be missing. Identical values can stand only once. Where no end group is shown, it is not given here.

Columns and labels:
[1] = test system: NS20Y neuroblastoma cells; experiment: Neurite outgrowth of NS20Y neuroblastoma cells; assay type: cell-based; conditions: for % Neurites after 24 hours: peptide added at 5 μg/ml, None = 18%
Experimental: NS20Y neuroblastoma cells were grown in Dulbecco's Modified Eagle Medium (DMEM) containing 10% fetal calf serum (FCS) and 1 mM sodium pyruvate. Cells were removed with trypsin and plated in 30 mm petri dishes onto glass coverslips. After 20-24 hours the medium was replaced with DMEM containing 0.5% fetal calf serum plus effector proteins. Cells were cultured for another 24 hours, washed with phosphate buffered saline (PBS) and fixed with Bouin's solution (saturated aqueous picric acid/formalin/acetic acid 15:5:1) for 30 minutes. Fixative was removed with PBS and neurite outgrowth was scored under a phase contrast microscope. […] At least 200 cells were scored in different portions of each dish to determine the percentage of neurite bearing cells and assays were performed in duplicate.

NS20Y proteins = experiment: Incorporation of 32P into NS20Y proteins; assay type: cell-based; conditions: NS20Y cells; effector proteins 0.5-1.0 μg/ml, 10-15 minutes; versus controls or saposins A, B or D
Experimental: NS20Y cells were incubated in phosphate-free Hanks' balanced salt solution containing 2.5 μg/ml actinomycin D and 80-100 μCi/ml carrier-free [^32P]-orthophosphate (New England Nuclear) and effector proteins (0.5-1.0 μg/ml) and incubated for 10-15 minutes at room temperature. Cells were solubilized in SDS-PAGE sample buffer, analyzed by SDS-PAGE and autoradiographed.

[2] = design: species or system rats; conditions: rat, in vivo
Experimental: An 18-mer peptide consisting of amino acids 12-29 of saposin C with a tyrosine substituted for valine at position 12 was chemically synthesized on an Applied Biosystems Model 430 peptide synthesizer. The peptide was then radioiodinated by the lactoperoxidase method and 20×10^6 cpm were injected into the auricles of rats. The animals were sacrificed after one hour and 24 hours and the hearts were perfused with isotonic saline in order to remove the blood from the brain. The brain was then counted in a gamma counter in order to determine the percentage of peptide uptake. In addition, in the 24 hour experiment the brain was homogenized and separated into a capillary rich fraction (pellet) and a parenchymal brain fraction (supernatant) after dextran centrifugation (Triguero et al., (1990) J. Neurochem., 54: 1882-1888). This method allows for the discrimination between radiolabelled peptide within blood vessels and that within the brain. In the 24 hour experiment, 0.017% of the injected peptide was detected in whole brain, 75% of the label was in the parenchymal fraction and 25% was in the capillary fraction. At 1 hour 0.03% of the injected dose was present in whole brain.

[3] = test system: mouse cerebellar explants; experiment: Neurite outgrowth and myelination in newborn mouse cerebellar explants; assay type: cell-based; conditions: prosaposin 5 μg/ml, saposins 10 μg/ml; for cells with long projections at the periphery of the explant: day 15
Experimental: Newborn mouse cerebellar explants were prepared according to Satomi (Zool. Sci. 9, 127-137 (1992)). Neurite outgrowth and myelination were observed over 22 days in culture, during the period when the newborn mouse cerebellum normally undergoes neuronal differentiation and myelination begins. Prosaposin (5 μg/ml) and saposins A, B and C (10 μg/ml) were added on the second day after preparation of the explants (three control and three treated explants) and outgrowth of neurites and myelination were assessed under a bright field microscope with a video camera.

[4] = test system: PC12M pheochromocytoma cells; experiment: Neurite outgrowth from NGF-responsive PC12M cells; assay type: cell-based; conditions: high concentrations (2 mg/ml)
Excerpt: Since nerve growth factor (NGF) acts on a variety of cell types, we wanted to determine whether it was involved in prosaposin-mediated outgrowth in neuroblastoma cells.

In the case of “1-27: synthetic peptide from the human saposin C domain, residues 1-27 (SDVYCEVCEFLVKEVTKLIDNNKTEKE; Saposin-C; UniProt P07602 311-337, looked up, fragment)”, the “% Neurites after 24 hours” value [1] is reported as 46%.

In the case of “1-40: amino terminal synthetic peptide, residues 1-40 of saposin C (SDVYCEVCEFLVKEVTKLIDNNKTEKEILDAFDKMCSKLP; Saposin-C; UniProt P07602 311-350, looked up, fragment)”, the “neuritogenic activity (in words)” value [1] is reported as “active” and the “% Neurites after 24 hours” value [1] is reported as 42%.

In the case of “13-34: synthetic peptide from the human saposin C domain, residues 13-34 (KEVTKLIDNNKTEKEILDAFDK; Saposin-C; UniProt P07602 323-344, looked up, fragment)”, the “% Neurites after 24 hours” value [1] is reported as 50%.

With “21-48: synthetic peptide from the human saposin C domain, residues 21-48 (NNKTEKEILDAFDKMCSKLPKSLSEECQ; Saposin-C; UniProt P07602 331-358, looked up, fragment)” the “% Neurites after 24 hours” value [1] was 18%.

With “41-82: carboxy terminal synthetic peptide, residues 41-82 of saposin C (KSLSEECQEVVDTYGSSILSILLEEVSPELVCSMLHLCSGTR; Saposin-C; UniProt P07602 351-392, looked up, fragment)” the “neuritogenic activity (in words)” value [1] was “inactive” and the “% Neurites after 24 hours” value [1] was 17%.

In the case of CEFLVKEVTKLIDNNKTEKEIL [8-29], the “neuritogenic activity (in words)” value [1] is reported as “neuritogenic activity”, the “extent of neurite outgrowth compared with prosaposin or saposin C” value ([1]; FIG. 1a, higher concentrations required for activity) is reported as “greater than with prosaposin or saposin C” and the “% Neurites after 24 hours” value [1] is reported as 56%. For the same molecule, the “phosphorylation of proteins of 148, 100, 80, 68, 50, 38 and 34 kDa (in words)” value (NS20Y proteins) was “stimulate phosphorylation”.

For “NGF: nerve growth factor, a neurotrophin [reference compound]”, the “neuritogenic activity (in words)” value [1] was “no effect on neurite outgrowth” and the “augmentation of the prosaposin neurite outgrowth response” value ([1]; 5 μg/ml NGF (FIG. 1b)) was “did not augment the prosaposin response”.

For “iodinated 18-mer: amino acids 12-29 of saposin C with tyrosine substituted for valine at position 12 (SEQ ID NO: 5), radioiodinated (YKEVTKLIDNNKTEKEIL; also: radioiodinated)”, the “neuritogenic activity (in words)” value [1] was “neuritogenic activity”, the “crossing of the blood brain barrier (in words)” value [2] was “crosses the blood brain barrier” and the “injected peptide detected in whole brain” value [2] was 0.017%. The “label in the capillary fraction of brain” value [2] was 25% and the “label in the parenchymal fraction of brain” value [2] was 75%.

B1: saposin B: one of four saposins generated from prosaposin (protein, UniProt P07602 195-273, looked up)
Saposin-B: GDVCQDCIQMVTDIQTAVRTNSTFVQALVEHVKEECDRLGPGMADICKNYISQYSEIAIQMMMHMQPKEICALVGFCDE
modifications: Saposin-B
notes: one of four saposins generated from prosaposin
For B1, the “cells with long projections at the periphery of the explant” value (“cells with long projections” for short) [3] was “less prominent”.

B2: Prosaposin: 70 kilodalton glycoprotein, precursor of saposins A, B, C and D; human sequence SEQ ID NO:2 (protein)
chain: MYALFLLASLLGAALAGPVLGLKECTRGSAVWCQNVKTASDCGAVKHCLQTVWNKPTVKSLPCDICKDVVTAAGDMLKDNATEEEILVYLEKTCDWLPKPNMSASCKEIVDSYLPVILDIIKGEMSRPGEVCSALNLCESLQKHLAELNHQKQLESNKIPELDMTEVVAPFMANIPLLLYPQDGPRSKPQPKDGDVCQDCIQMVTDIQTAVRTNSTFVQALVEHVKEECDRLGPGMADICKNYISQYSEIAIQMMMHMQPKEICALVGFCDEVKEMPMQTLVPAKVASKNVIPALDLVDPIKKHEVPAKSDVYCEVCEFLVKEVTKLIDNNKTEKEILDAFDKMCSKLPKSLSEECQEVVDTYGSSILSILLEEVSPELVCSMLHLCSGTRLPALTVHVTQPKDGGFCEVCKKLVGTLDRNLEKNSTKQEILAALEKGCSFLPDPYQKQCDQFVAEYEPVLIEILVEVMDPSFVCLKIGACPSAHKPLLGTEKCIWGPSYWCQNTETAAQCNAVEHCKRHVWN
With B2 the “neuritogenic activity (in words)” value [1] was “promoted reversible neurite outgrowth”, the “lowest concentration for activity (neurite outgrowth)” value ([1]; dose-response curve FIG. 1a) was 1.4×10^−11 M and 10 ng/ml and the “time at which retraction of neurite outgrowth was complete after removal” value ([1]; prosaposin removed) was 36 h. The “phosphorylation of proteins of 148, 100, 80, 68, 50, 38 and 34 kDa (in words)” value (NS20Y proteins) was “stimulate phosphorylation”, the “stimulation of neurite outgrowth from PC12M cells” value [4] was “failed to stimulate neurite outgrowth” and the “appearance of explant cultures on the eighth day” value ([3]; day 8) was “thinner and more spread out than control cultures”. For the same molecule, the “cells with long projections” value [3] was “many cells with long projections”.

B3: Saposin A: one of four saposins generated from prosaposin; inactive in neurite outgrowth (protein, UniProt P07602 60-142, looked up)
Saposin-A: SLPCDICKDVVTAAGDMLKDNATEEEILVYLEKTCDWLPKPNMSASCKEIVDSYLPVILDIIKGEMSRPGEVCSALNLCESLQ
modifications: Saposin-A
With B3 the “neuritogenic activity (in words)” value [1] was “inactive”, the “% Neurites after 24 hours” value [1] was 20% and the “cells with long projections” value [3] was “less prominent”.
